{"source": "paper PMC4718742", "target": "human CrkII (1–304) (human) (UniProt P46108)", "sequence (P46108 whole entry)": "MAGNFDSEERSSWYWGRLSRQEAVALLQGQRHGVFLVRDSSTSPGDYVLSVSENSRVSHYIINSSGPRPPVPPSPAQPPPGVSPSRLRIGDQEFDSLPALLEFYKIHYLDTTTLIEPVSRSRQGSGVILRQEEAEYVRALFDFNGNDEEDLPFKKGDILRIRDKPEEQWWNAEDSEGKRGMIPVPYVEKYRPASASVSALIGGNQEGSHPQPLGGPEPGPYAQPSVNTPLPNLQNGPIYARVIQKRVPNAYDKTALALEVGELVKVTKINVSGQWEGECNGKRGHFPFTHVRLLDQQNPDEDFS", "assay": "NMR titration"}
{"substance": "human CypA (1–165) (from UniProt P62937 1-165) (enzyme; other documents disagree on this pair)", "values": [{"measurement": "Kd", "value": 15, "unit": "µM"}]}
